From publication PMC7614968 come the findings set out here.

This assay has as its target SteD (untagged, HIS tag cleaved) (Salmonella enterica serovar Typhimurium (14028s)). Description: SEC-MALS; co-purified untagged SteD-SrcA complex at 8 mg/ml on analytical Superdex200 in the dialysis buffer (20 mM phosphate pH 6.8, 150 mM NaCl, 5 % glycerol, 1 mM DTT), 0.4 ml/min. On the technique in general: SEC sorts molecules by how far they enter the pores of the column.

Regarding “SrcA (untagged, recombinant) (natural protein)”, the stoichiometry N (SrcA molecules per SteD molecule) amounted to 2.
